Test results from paper PMC9041927, “Aptamer based surface plasma resonance assay for direct detection of neuron specific enolase and progastrin-releasing peptide (31-98)†”.

Columns and labels:
[1] = molecular target: T1, neuron specific enolase (NSE) (UniProt P09104 2-434); test: SPR; NSE 125 nM to 2 uM; SPR (Biacore X100, SA chip); 1x PBS pH 7.5, 0.1% Tween 20, 5 mM MgCl2 (NSE) or 2 mM MgCl2 (ProGRP31-98); temperature not stated; conditions: protein: recombinant; chain copies: 2; label: 5' biotin-TEG
T1 sequence (P09104 2-434): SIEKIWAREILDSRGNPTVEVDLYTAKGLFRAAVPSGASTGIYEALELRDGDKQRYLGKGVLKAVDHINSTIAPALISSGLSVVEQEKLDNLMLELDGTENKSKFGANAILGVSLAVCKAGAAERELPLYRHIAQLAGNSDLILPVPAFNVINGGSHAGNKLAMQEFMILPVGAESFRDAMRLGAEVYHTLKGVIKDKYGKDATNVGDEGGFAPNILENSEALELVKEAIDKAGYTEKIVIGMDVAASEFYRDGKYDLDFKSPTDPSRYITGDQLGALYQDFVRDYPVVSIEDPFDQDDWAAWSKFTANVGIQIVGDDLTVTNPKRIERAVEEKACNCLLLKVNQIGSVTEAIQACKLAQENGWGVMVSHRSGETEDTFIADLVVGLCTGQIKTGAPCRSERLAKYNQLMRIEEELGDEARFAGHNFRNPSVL

[2] = molecular target: T1, neuron specific enolase (NSE); test: SPR; 5 mM MgCl2; kon 1.21e4 (printed Ms-1), koff 1.004e-3 s-1; SPR (Biacore X100, SA chip); 1x PBS pH 7.5, 0.1% Tween 20, 5 mM MgCl2 (NSE) or 2 mM MgCl2 (ProGRP31-98); temperature not stated; conditions: protein: recombinant; chain copies: 2; label: 5' biotin-TEG
[3] = molecular target: T2, progastrin-releasing peptide (31-98) (ProGRP31-98) (UniProt P07492 54-121); test: SPR; 2 mM MgCl2; kon 8.64e3 (printed Ms-1), koff 1.321e-3 s-1; SPR (Biacore X100, SA chip); 1x PBS pH 7.5, 0.1% Tween 20, 5 mM MgCl2 (NSE) or 2 mM MgCl2 (ProGRP31-98); temperature not stated; conditions: protein: commercial; label: 5' biotin-TEG
T2 sequence: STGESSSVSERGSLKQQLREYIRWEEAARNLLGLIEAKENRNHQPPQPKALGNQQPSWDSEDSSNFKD

Binder: TCAGGTGCAGTTCTCGACTCGGTCTTGATGTGGGT (ssDNA) [DNA control]
- binding result [1]: no binding

Binder: TCACACACGGACCTCTCCTACATTAATTGCGCATTTCGTT (ssDNA) [NSE-Apt5-5BioTEG]
- Kd [2]: ~83 nM

Binder: CATGCGGAGTAGATTCGAGCCCAGATAGTCCCTGGTTATTTCCTTAGG (ssDNA) [ProGRP-48-5BioTEG]
- Kd [3]: 153 nM
